Test results: article PMC10415120

Biological target: MDC1 (endogenous, HCT116) [human (endogenous in HCT116)]
Test: proximity ligation assay (PLA) in cells
Conditions: ESCO2 KD HCT116 cells, bleomycin treated; 30 cells counted per group; mean ± SEM; parent: 14; read off a plot

Flag-ESCO2 WT (in ESCO2 KD HCT116 cells) mutant S196A; T233A [human] / MDC1 (endogenous, HCT116) [human (endogenous in HCT116)] chain 1 S196A, chain 1 T233A
response (PLA dots per cell): 0.5
